{"source": "patent US20220381793A1", "about": "“COMPOSITIONS AND METHODS FOR IDENTIFYING MHC-II BINDING PEPTIDES” (priority 2021, published 2022)", "target": "“empty” DR4-LZ (DRA*01:01/DRB1*04:01 ectodomains with Jun/Fos leucine zippers, non-covalent heterodimer displayed on yeast through Aga2p) (human)"}
{"substance": "S862-888 (printed “5862-888”) (from UniProt P0DTC2 862-878) (peptide)", "values": [{"measurement": "% competition", "result": 75, "unit": "%"}]}
